Experimental data published in paper PMC8790125.

Molecular target: Rae1–Nup98_(GLEBS) complex, P78406
Test: ITC

B1: SARS-CoV-1 Orf6CTT (22-mer peptide, residues 42–63 of SARS-CoV-1 Orf6) (peptide)
chain: KPLTKKNYSELDDEEPMELDYP
modifications: not checked
Q: How did the Kd turn out when B1 was run?
A: 278 nM

Q: What about the stoichiometry N of the same binder?
A: 1
